Experimental data published in publication PMC3699631, “Posttranslational Modifications of the Histone 3 Tail and Their Impact on the Activity of Histone Lysine Demethylases In Vitro” (PLoS ONE, 2013).
Entries after “also recorded” stand apart in the source; their conditions may differ.

Target: T1, human FL-KDM4C (Homo sapiens, UniProt Q9H3R0)
T1 construct: along with the full length FL- KDM4C and FL-KDM4A using various synthetic histone tail peptides as substrates; His6 (N); FLAG (N); made in house; host or cells: High Five (Trichoplusia ni) insect cells, baculovirus
T1 sequence (Q9H3R0 1-1056): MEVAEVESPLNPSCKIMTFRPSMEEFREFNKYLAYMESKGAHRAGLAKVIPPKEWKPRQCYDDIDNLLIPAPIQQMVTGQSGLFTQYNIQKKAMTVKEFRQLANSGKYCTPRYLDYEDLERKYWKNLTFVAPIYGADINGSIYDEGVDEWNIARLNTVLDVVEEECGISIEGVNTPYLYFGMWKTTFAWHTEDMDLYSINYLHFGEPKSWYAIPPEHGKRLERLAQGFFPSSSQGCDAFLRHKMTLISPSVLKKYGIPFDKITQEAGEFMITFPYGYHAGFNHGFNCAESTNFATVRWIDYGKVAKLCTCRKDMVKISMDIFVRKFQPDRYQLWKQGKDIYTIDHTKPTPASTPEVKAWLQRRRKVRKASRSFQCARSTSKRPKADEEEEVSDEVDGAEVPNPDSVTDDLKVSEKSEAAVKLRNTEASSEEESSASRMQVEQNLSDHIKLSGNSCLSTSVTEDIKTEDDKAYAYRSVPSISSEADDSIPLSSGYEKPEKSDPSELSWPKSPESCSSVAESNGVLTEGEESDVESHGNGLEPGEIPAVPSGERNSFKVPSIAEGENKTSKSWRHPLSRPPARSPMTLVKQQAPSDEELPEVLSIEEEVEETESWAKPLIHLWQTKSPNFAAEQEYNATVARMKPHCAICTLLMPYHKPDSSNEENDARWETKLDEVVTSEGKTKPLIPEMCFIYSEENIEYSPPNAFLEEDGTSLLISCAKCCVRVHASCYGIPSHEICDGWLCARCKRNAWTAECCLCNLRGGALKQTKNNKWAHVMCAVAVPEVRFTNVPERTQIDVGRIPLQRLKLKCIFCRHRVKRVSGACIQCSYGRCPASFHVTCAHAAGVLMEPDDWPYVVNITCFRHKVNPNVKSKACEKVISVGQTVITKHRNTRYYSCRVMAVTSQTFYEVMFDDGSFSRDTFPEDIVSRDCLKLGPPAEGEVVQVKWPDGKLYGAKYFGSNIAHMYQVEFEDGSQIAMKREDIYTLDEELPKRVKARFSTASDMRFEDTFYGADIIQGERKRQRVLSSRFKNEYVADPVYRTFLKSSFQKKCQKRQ
Experiment: FDH-assay enzyme kinetics of H3 peptide demethylation, full length KDM4C
Type: biochemical
Design: key to K m / k cat / k cat /K m: 0 means no demethylation could be detected
Conditions: for K m / k cat /K m / demethylation / catalytic activity (in words) / k cat: FDH-assay; for K m: 50 mM HEPES (pH 7.5), 50 mM NaCl, 50 µM FeSO4, 500 µM α-KG, 500 µM ascorbate, 2 mM NAD, substrate 10–1000 µM, NADH fluorescence 15–30 minutes; for K m / k cat: triplicate; for k cat /K m: pH 7.5, triplicate; for k cat: pH 7.5, NADH fluorescence
Description: The enzyme kinetics were measured using a Formaldehyde DeHydrogenase Assay (FDH-Assay) and the demethylation of substrates was confirmed when possible by MALDI-TOF-MS, see File S1 for details. The test solution contained 50 mM HEPES (pH 7.5), 50 mM NaCl, 50 µM FeSO4, 500 µM α-KG, 500 µM ascorbate, 2 mM NAD, approximately 0.05 unit of FDH and e.g. 4.88 µM KDM4C (enzyme concentration varied between batches). The reference solution was comprised of the same except substrate. The assay was initiated by adding various concentrations of H3 peptide substrates e.g. H3(1–24)K9me3 (10–1000 µM) and the increase in NADH fluorescence was measured over 15–30 minutes in 30 second intervals. Data analysis and kinetic values were obtained using programs Excel and GraphPad Prism® 5.0. For details, see File S1.
The standard deviations for k cat/K m were calculated using the statistic law of propagation of errors. Standard errors for Michaelis-Menten Kinetics were automatically given in GraphPad Prism®, with a 95% confidence interval. All enzyme kinetic curves were done in triplicate unless otherwise stated.
Test for activity of enzyme using the fluorescence FDH assay, determination of Vmax and Km of enzymes with substrate, expression and purification of cc-KDM4A and cc-KDM4C software and parameters for the FDH coupled assay, see Lohse et al.^21
Recombinant baculoviridae encoding the full Open Reading Frame (ORF) of FL-KDM4A and FL-KDM4C were generously donated from the Biotech Research and Innovation Centre (BRIC), University of Copenhagen, Denmark. Recombinant protein was expressed by adding High Titer Stocks to High Five (Trichopulsia ni) insect cells in suspension culture. The cell cultures were harvested by centrifugation after ~ 60 hours and the cells were resuspended in hypotonic buffer (25 mM Hepes-KOH, pH 7.7, 1.5 mM MgCl, 5 mM KCl) supplemented with one protease inhibitor cocktail tablet per 500 ml expression (Roche, EDTA-free). The resuspended cells were frozen at -20 °C.
Both proteins were purified by IMAC using Talon FF (Clontech) cobalt resin according to the following protocol; resuspended cells were thawed on ice, 100 ml hypotonic buffer was added per 500 ml expression volume and the cells were incubated with stirring for 30 min. at 4 °C, followed by a brief (30 s per 500 ml culture volume) sonication. β-mercaptoethanol (BME, 2 mM final concentration), Triton X-100 (0.2 % final concentration) and NaCl (300 mM final concentration) were added and the cell suspension was stirred for another 30 min at 4 °C. The lysate was cleared by centrifugation at 50.000 g for 60 minutes. The cleared lysates were adjusted to 5 mM imidazole and incubated with Talon resin (1 ml /500 ml expression) for 60 minutes. The resin was allowed to sediment, the lysate removed and the resin was transferred to PD-10 gravity flow columns (GE Healthcare). The resin was washed with 10 column volumes of binding buffer (50 mM Hepes-KOH, pH 7.7, 300 mM NaCl, 5 mM imidazole, 10% glycerol, 0.05 % Triton X-100, 2 mM BME) and eluted with 2 x 2.5 ml elution buffer (50 mM Hepes-KOH, pH 7.7, 300 mM NaCl, 100 mM imidazole, 10 % glycerol, 0.05 % Triton X-100, 2 mM BME). Each eluted fraction has its buffer changed to 50 mM Hepes pH 7.5, 300 mM NaCl, 10 % glycerol using a PD-10 desalting column. The protein was concentrated to 6-7 mg/ml (FL-KDM4A) or 10-12 mg/ml (FL-KDM4C). Despite the buffer change it is likely that small amounts of Triton X-100 remained in the protein samples. Triton X-100 has a significant absorbance at 280 nm, so the protein concentration was determined by Bradford assay using a BSA standard curve. The protein purity was approximately 70 % as judged from SDS-PAGE. The concentrated protein was aliquoted and stored at -80 °C until assays were performed.
The standard deviations for kcat/ Km were calculated using the statistic law of propagation of errors. […]

[1] = SD by propagation of errors, unit: (min^−1 * µM^−1) * 10^3

Substance	K m	k cat /K m [1]	k cat /K m (figures) [min^-1 * μM^-1 * 10^3]	demethylation / catalytic activity (in words)	k cat	demethylation / catalytic activity (in words) (listed as H3K9me3)	fold increase in k cat/K m (compared to H3(1–24)K9me3) [fold]
H3(1–24)K9me2: truncated histone tail, 24 first amino acids from the N-terminus of H3, dimethylated lysine 9	79±10	1.3±0.2	2 ± 0.4				
H3(1–24)K9me3T11(ph): H3(1–24)K9me3 with phosphorylation of threonine 11	0	0		no detectable turnover	0		
H3(1–24)K9me3: truncated histone tail, 24 first amino acids from the N-terminus of H3, trimethylated lysine 9; control peptide	57±5	12±2	12 ± 2		0.7±0.1	preference for the H3K9me3 over the H3K9me2; also recorded: an order of magnitude higher activity towards trimethylated H3K9me3 compared to dimethylated H3K9me2 substrates	
H3(1–24)K4me3K9me3: bis-tri-methylated substrate, trimethylated K4 in combination with H3K9me3	42±3	24±3	24 ± 3	a small difference in activity between H3(1–24)K9me3 and H3(1–24)K4me3-K9me3	1.1±0.2		2
